In patent US20220389118A1 (Chugai, published 2022):

T1: human FcγRIIa type R extracellular domain with C-terminal His tag (human, UniProt P12318 34-217)
T1 construct: extracellular domain; also called FcγRIIaR; FcγRIIa(R)
T1 sequence (looked up): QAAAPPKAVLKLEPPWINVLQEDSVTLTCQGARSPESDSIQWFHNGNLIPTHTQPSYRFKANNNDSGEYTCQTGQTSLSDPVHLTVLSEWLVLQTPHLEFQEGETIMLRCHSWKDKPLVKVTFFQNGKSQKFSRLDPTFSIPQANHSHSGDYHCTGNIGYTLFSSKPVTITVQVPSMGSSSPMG

T2: human FcγRIIb extracellular domain with C-terminal His tag (human, UniProt P31994 43-217)
T2 construct: extracellular domain
T2 sequence (looked up): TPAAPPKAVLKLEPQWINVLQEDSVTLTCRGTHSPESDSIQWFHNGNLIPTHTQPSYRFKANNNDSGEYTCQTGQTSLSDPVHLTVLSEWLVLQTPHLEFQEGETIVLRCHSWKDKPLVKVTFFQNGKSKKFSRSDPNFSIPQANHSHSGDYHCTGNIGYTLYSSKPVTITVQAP


What was measured:
Test in all cases: SPR (Biacore)
[1] = molecular target: T3, human FcγRIa extracellular domain with C-terminal His tag (human, UniProt P12314 16-292)
T3 construct: extracellular domain

[2] = molecular target: T1, human FcγRIIa type R extracellular …
[3] = molecular target: T2, human FcγRIIb extracellular domain with …

T3 sequence (P12314 16-292): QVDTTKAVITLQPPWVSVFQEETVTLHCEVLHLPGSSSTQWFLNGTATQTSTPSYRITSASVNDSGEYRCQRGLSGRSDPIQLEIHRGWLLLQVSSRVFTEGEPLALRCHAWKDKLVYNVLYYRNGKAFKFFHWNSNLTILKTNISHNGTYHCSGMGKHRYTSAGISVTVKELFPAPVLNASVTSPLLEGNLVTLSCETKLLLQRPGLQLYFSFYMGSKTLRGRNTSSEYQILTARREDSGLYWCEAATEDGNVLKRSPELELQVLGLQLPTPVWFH

Kd [1] [nM] | Kd [2] [nM] | Kd [3] [nM] | Binder
7.4 | 350 | – | IL6R-BP264/IL6R-L (antibody, human IgG1, kappa, copies: 2 + 2) heavy: QVQLQESGPGLVKPSETLSLTCAVSGHSISHDHAWSWVRQPPGEGLEWIGFISYSGITNYNPSLQGRVTISRDNSKNTLYLQMNSLRAEDTAVYYCARSLARTTAMDYWGEGTLVTVSSASTKGPSVFPLAPSSKSTSGGTAALGCLVKDYFPEPVTVSWNSGALTSGVHTFPAVLQSSGLYSLSSVVTVPSSSLGTQTYICNVNHKPSNTKVDKKVEPKSCDKTHTCPPCPAPDLLGDDSVFLFPPKPKDTLMISRTPEVTCVVVDVSEEDGEVKFNWYVDGVEVHNAKTKPREEQDNSTYRVVSVLTVLHQDWLNGKEYKCKVSNKALPRPIEKTISKAKGQPREPQVYTLPPSRDELTKNQVSLTCLVKGFYPSDIAVEWESNGQPENNYKTTPPVLDSDGSFFLYSKLTVDKSRWQQGNVFSCSVMHEALHNHYTQESLSLSP light: not shown
1 | – | – | IL6R-BP435/IL6R-L (antibody, human IgG1, kappa, copies: 2 + 2) heavy: QVQLQESGPGLVKPSETLSLTCAVSGHSISHDHAWSWVRQPPGEGLEWIGFISYSGITNYNPSLQGRVTISRDNSKNTLYLQMNSLRAEDTAVYYCARSLARTTAMDYWGEGTLVTVSSASTKGPSVFPLAPSSKSTSGGTAALGCLVKDYFPEPVTVSWNSGALTSGVHTFPAVLQSSGLYSLSSVVTVPSSSLGTQTYICNVNHKPSNTKVDKKVEPKSCDKTHTCPPCPAPDLLGDDSVFLFPPKPKDTLMISRTPEVTCVVVDVSDEDGEVKFNWYVDGVEVHNAKTKPREEQDNSTYRVVSVLTVLHQDWLNGKEYKCKVSNAALPRPTEKTISKAKGQPREPQVYTLPPSRDELTKNQVSLTCLVKGFYPSDIAVEWESNGQPENNYKTTPPVLDSDGSFFLYSKLTVDKSRWQQGNVFSCSVMHEALHNHYTQESLSLSP light: not shown
4.5 | 110 | 2.4 | IL6R-BP490/IL6R-L (antibody, human IgG1, kappa, copies: 2 + 2) heavy: QVQLQESGPGLVKPSETLSLTCAVSGHSISHDHAWSWVRQPPGEGLEWIGFISYSGITNYNPSLQGRVTISRDNSKNTLYLQMNSLRAEDTAVYYCARSLARTTAMDYWGEGTLVTVSSASTKGPSVFPLAPSSKSTSGGTAALGCLVKDYFPEPVTVSWNSGALTSGVHTFPAVLQSSGLYSLSSVVTVPSSSLGTQTYICNVNHKPSNTKVDKKVEPKSCDKTHTCPPCPAPELLGDDSVFLFPPKPKDTLMISRTPEVTCVVIDVAEEDGEVKFNWYVDGVEVHNAKTKPREEQYNSTYRVVSVLTVLHQDWLNGKEYKCKVSNKALPRPIEKTISKAKGQPREPQVYTLPPSRDELTKNQVSLTCLVKGFYPSDIAVEWESNGQPENNYKTTPPVLDSDGSFFLYSKLTVDKSRWQQGNVFSCSVMHEALHNHYTQESLSLSP light: not shown
– | 6300 | 200 | IL6R-BP480/IL6R-L (antibody, human IgG1, kappa, copies: 2 + 2) heavy: QVQLQESGPGLVKPSETLSLTCAVSGHSISHDHAWSWVRQPPGEGLEWIGFISYSGITNYNPSLQGRVTISRDNSKNTLYLQMNSLRAEDTAVYYCARSLARTTAMDYWGEGTLVTVSSASTKGPSVFPLAPSSKSTSGGTAALGCLVKDYFPEPVTVSWNSGALTSGVHTFPAVLQSSGLYSLSSVVTVPSSSLGTQTYICNVNHKPSNTKVDKKVEPKSCDKTHTCPPCPAPDLLGDDSVFLFPPKPKDTLMISRTPEVTCVVVDLSEDDGEVKFNWYVDGVEVHNAKTKPREEQYNSTYRVVSVLTVLHQDWLNGKEYKCKVSNKALPAPIEKTISKAKGQPREPQVYTLPPSRDELTKNQVSLTCLVKGFYPSDIAVEWESNGQPENNYKTTPPVLDSDGSFFLYSKLTVDKSRWQQGNVFSCSVMHEALHNHYTQESLSLSP light: not shown
1 | – | – | IL6R-BP426/IL6R-L (antibody, human IgG1, kappa, copies: 2 + 2) heavy: QVQLQESGPGLVKPSETLSLTCAVSGHSISHDHAWSWVRQPPGEGLEWIGFISYSGITNYNPSLQGRVTISRDNSKNTLYLQMNSLRAEDTAVYYCARSLARTTAMDYWGEGTLVTVSSASTKGPSVFPLAPSSKSTSGGTAALGCLVKDYFPEPVTVSWNSGALTSGVHTFPAVLQSSGLYSLSSVVTVPSSSLGTQTYICNVNHKPSNTKVDKKVEPKSCDKTHTCPPCPAPDLLGDDSVFLFPPKPKDTLMISRTPEVTCVVVDVAEDDGEVKFNWYVDGVEVHNAKTKPREEQYNSTYRVVSVLTVLHQDWLNGKEYKCKVSNKALPRPIEKTISKAKGQPREPQVYTLPPSRDELTKNQVSLTCLVKGFYPSDIAVEWESNGQPENNYKTTPPVLDSDGSFFLYSKLTVDKSRWQQGNVFSCSVMHEALHNHYTQESLSLSP light: not shown

Continued, binder first:

Binder | Kd [1] [nM] | Kd [2] [nM] | Kd [3] [nM]
IL6R-BP445/IL6R-L (antibody, human IgG1, kappa, copies: 2 + 2) heavy: QVQLQESGPGLVKPSETLSLTCAVSGHSISHDHAWSWVRQPPGEGLEWIGFISYSGITNYNPSLQGRVTISRDNSKNTLYLQMNSLRAEDTAVYYCARSLARTTAMDYWGEGTLVTVSSASTKGPSVFPLAPSSKSTSGGTAALGCLVKDYFPEPVTVSWNSGALTSGVHTFPAVLQSSGLYSLSSVVTVPSSSLGTQTYICNVNHKPSNTKVDKKVEPKSCDKTHTCPPCPAPDLLGDDSVFLFPPKPKDTLMISRTPEVTCVVIDVAEEDGEVKFNWYVDGVEVHNAKTKPREEQYNSTYRVVSVLTVLHQDWLNGKEYKCKVSNKALPRPIEKTISKAKGQPREPQVYTLPPSRDELTKNQVSLTCLVKGFYPSDIAVEWESNGQPENNYKTTPPVLDSDGSFFLYSKLTVDKSRWQQGNVFSCSVMHEALHNHYTQESLSLSP light: not shown | 2 | 80 | 2.6
IL6R-BP506/IL6R-L (antibody, human IgG1, kappa, copies: 2 + 2) heavy: QVQLQESGPGLVKPSETLSLTCAVSGHSISHDHAWSWVRQPPGEGLEWIGFISYSGITNYNPSLQGRVTISRDNSKNTLYLQMNSLRAEDTAVYYCARSLARTTAMDYWGEGTLVTVSSASTKGPSVFPLAPSSKSTSGGTAALGCLVKDYFPEPVTVSWNSGALTSGVHTFPAVLQSSGLYSLSSVVTVPSSSLGTQTYICNVNHKPSNTKVDKKVEPKSCDKTHTCPPCPAPDLLGDDSVFLFPPKPKDTLMISRTPEVTCVVIDVAEEDGPVKFNWYVDGVEVHNAKTKPREEQDNSTYRVVSVLTVLHQDWLNGKEYKCKVSNKALPRPIEKTISKAKGQPREPQVYTLPPSRDELTKNQVSLTCLVKGFYPSDIAVEWESNGQPENNYKTTPPVLDSDGSFFLYSKLTVDKSRWQQGNVFSCSVMHEALHNHYTQESLSLSP light: not shown | 3.1 | 120 | 3.4
IL6R-BP507/IL6R-L (antibody, human IgG1, kappa, copies: 2 + 2) heavy: QVQLQESGPGLVKPSETLSLTCAVSGHSISHDHAWSWVRQPPGEGLEWIGFISYSGITNYNPSLQGRVTISRDNSKNTLYLQMNSLRAEDTAVYYCARSLARTTAMDYWGEGTLVTVSSASTKGPSVFPLAPSSKSTSGGTAALGCLVKDYFPEPVTVSWNSGALTSGVHTFPAVLQSSGLYSLSSVVTVPSSSLGTQTYICNVNHKPSNTKVDKKVEPKSCDKTHTCPPCPAPDLLGDDSVFLFPPKPKDTLMISRTPEVTCVVIDVAEEDGPVKFNWYVDGVEVHNAKTKPREEQYNSTYRVVSVLTVLHQDWLNGKEYKCKVSNKALPRPIEKTISKAKGQPREPQVYTLPPSRDELTKNQVSLTCLVKGFYPSDIAVEWESNGQPENNYKTTPPVLDSDGSFFLYSKLTVDKSRWQQGNVFSCSVMHEALHNHYTQESLSLSP light: not shown | 2.6 | 100 | 2.9
IL6R-BP501/IL6R-L (antibody, human IgG1, kappa, copies: 2 + 2) heavy: QVQLQESGPGLVKPSETLSLTCAVSGHSISHDHAWSWVRQPPGEGLEWIGFISYSGITNYNPSLQGRVTISRDNSKNTLYLQMNSLRAEDTAVYYCARSLARTTAMDYWGEGTLVTVSSASTKGPSVFPLAPSSKSTSGGTAALGCLVKDYFPEPVTVSWNSGALTSGVHTFPAVLQSSGLYSLSSVVTVPSSSLGTQTYICNVNHKPSNTKVDKKVEPKSCDKTHTCPPCPAPELLGDDSVFLFPPKPKDTLMISRTPEVTCVVIDVAEEDGEVKFNWYVDGVEVHNAKTKPREEQYNSTYRVVSVLTVLHQDWLNGKEYKCKVSNKALPAPIEKTISKAKGQPREPQVYTLPPSRDELTKNQVSLTCLVKGFYPSDIAVEWESNGQPENNYKTTPPVLDSDGSFFLYSKLTVDKSRWQQGNVFSCSVMHEALHNHYTQESLSLSP light: not shown | 2.1 | – | 25
IL6R-BP495/IL6R-L (antibody, human IgG1, kappa, copies: 2 + 2) heavy: QVQLQESGPGLVKPSETLSLTCAVSGHSISHDHAWSWVRQPPGEGLEWIGFISYSGITNYNPSLQGRVTISRDNSKNTLYLQMNSLRAEDTAVYYCARSLARTTAMDYWGEGTLVTVSSASTKGPSVFPLAPSSKSTSGGTAALGCLVKDYFPEPVTVSWNSGALTSGVHTFPAVLQSSGLYSLSSVVTVPSSSLGTQTYICNVNHKPSNTKVDKKVEPKSCDKTHTCPPCPAPELLGDDSVFLFPPKPKDTLMISRTPEVTCVVVDVGEEDGEVKFNWYVDGVEVHNAKTKPREEQDNSTYRVVSVLTVLHQDWLNGKEYKCKVSNKALPRPIEKTISKAKGQPREPQVYTLPPSRDELTKNQVSLTCLVKGFYPSDIAVEWESNGQPENNYKTTPPVLDSDGSFFLYSKLTVDKSRWQQGNVFSCSVMHEALHNHYTQESLSLSP light: not shown | 8.3 | – | 9.7
IL6R-BP268/IL6R-L (antibody, human IgG1, kappa, copies: 2 + 2) heavy: QVQLQESGPGLVKPSETLSLTCAVSGHSISHDHAWSWVRQPPGEGLEWIGFISYSGITNYNPSLQGRVTISRDNSKNTLYLQMNSLRAEDTAVYYCARSLARTTAMDYWGEGTLVTVSSASTKGPSVFPLAPSSKSTSGGTAALGCLVKDYFPEPVTVSWNSGALTSGVHTFPAVLQSSGLYSLSSVVTVPSSSLGTQTYICNVNHKPSNTKVDKKVEPKSCDKTHTCPPCPAPDLLGDDSVFLFPPKPKDTLMISRTPEVTCVVVDVSEEDGEVKFNWYVDGVEVHNAKTKPREEQDNSTYRVVSVLTVLHQDWLNGKEYKCKVSNKALPAPIEKTISKAKGQPREPQVYTLPPSRDELTKNQVSLTCLVKGFYPSDIAVEWESNGQPENNYKTTPPVLDSDGSFFLYSKLTVDKSRWQQGNVFSCSVMHEALHNHYTQESLSLSP light: not shown | 4.5 | – | 92
